Measured values from publication doi:10.1101/2025.10.22.683608.

T1: ADAR1-Zα (UniProt P55265 134-198)
T1 sequence: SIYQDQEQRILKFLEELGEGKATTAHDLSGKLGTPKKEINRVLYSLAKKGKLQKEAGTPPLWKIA

T2: ZBP1-Zα (UniProt Q9H171 8-70)
T2 sequence: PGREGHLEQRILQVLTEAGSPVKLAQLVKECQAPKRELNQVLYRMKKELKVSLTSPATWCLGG

B1: A11 (ssDNA)
DNA: TTCAGCACTCCACGCATAGCCCGGTGCCGACCGAACCACCGTTGCCCTCCGCATGCCCTATGCGTGCTACCGTGAA
B2: A9 (ssDNA)
DNA: TTCAGCACTCCACGCATAGCCGACCACCCCCCCGACCCGGTGTCACTCCCCGCGCCCCTATGCGTGCTACCGTGAA
B3: A14 (ssDNA)
DNA: TTCAGCACTCCACGCATAGCACGCCGCCGAAGCAAACCCACGTCCTCGCCCACGGCCCTATGCGTGCTACCGTGAA
B4: A3 (ssDNA)
DNA: TTCAGCACTCCACGCATAGCCGACCCGCGCCGCATTCACTGCCTACTGCCCGCCGCCCTATGCGTGCTACCGTGAA
B5: A7 (ssDNA)
DNA: TTCAGCACTCCACGCATAGCGACGGGCCAACACCCCAGGTTCGCGTCCCCGCCTGCCCTATGCGTGCTACCGTGAA
B6: A12 (ssDNA)
DNA: TTCAGCACTCCACGCATAGCACACGCGCGAAGACCCCCACCGATCCGGCCGCTCGTCCTATGCGTGCTACCGTGAA
B7: A4 (ssDNA)
DNA: TTCAGCACTCCACGCATAGCACGCCCGCCACCCCCTCTCCTGGCCATCCGCGCACACCTATGCGTGCTACCGTGAA
B8: A5 (ssDNA)
DNA: TTCAGCACTCCACGCATAGCCCGCCCCCCGCTACTCCCCTCCTGAGTTGCCGTCGCCCTATGCGTGCTACCGTGAA
B9: A2 (ssDNA)
DNA: TTCAGCACTCCACGCATAGCCGGCCAGCCAAGTCCCCGCTCCTCACGGCCCCCCGCCCTATGCGTGCTACCGTGAA
B10: A8 (ssDNA)
DNA: TTCAGCACTCCACGCATAGCCCGCCACCACCAATCCTCACACTAGTCCGGCCCGGTCCTATGCGTGCTACCGTGAA
B11: A13 (ssDNA)
DNA: TTCAGCACTCCACGCATAGCCCGGCCGACGGAACAATCCGTGTTCACTCGTCGCACCCTATGCGTGCTACCGTGAA
B12: A1 (ssDNA)
DNA: TTCAGCACTCCACGCATAGCCGGACGCGCCCCTCTTCCTTGTGTGCTCTCGCCCGCCCTATGCGTGCTACCGTGAA
B13: A6 (ssDNA)
DNA: TTCAGCACTCCACGCATAGCCCGCACCCAGCCGCGACTGCCCCCTGGTTCGGCCCGCCTATGCGTGCTACCGTGAA
B14: A10 (ssDNA)
DNA: TTCAGCACTCCACGCATAGCACACGACCGAACTCGCCAACCCTGTCGTCCCGCCCGCCTATGCGTGCTACCGTGAA
B15: A15 (ssDNA)
DNA: TTCAGCACTCCACGCATAGCCCGGCGTGAAGACCCGTGTGCTTTCAGGTCGCCCGCCCTATGCGTGCTACCGTGAA
B16: A16 (ssDNA)
DNA: TTCAGCACTCCACGCATAGCACACCGCCCCCCTCTACTCGGCACACTCGCCCGCCCCTATGCGTGCTACCGTGAA

target: T1, ADAR1-Zα; experiment: SPR

First: B1
Second: B2
The Kd of the first is 3.9-fold higher: 104 ± 10 nM for the first, 26.5 ± 5.5 nM for the second. The second binds more tightly here.

Going from B3 to B4, the Kd falls from 96.7 ± 11.4 nM to 16.1 ± 3.7 nM (6-fold).

Compared with B5, B6 is 3.8-fold higher in Kd: 27.7 ± 3.1 nM for the first, 104 ± 29.2 nM for the second. The first binds more tightly here.

B7 and B8 are within error of each other in Kd: 2.1 ± 0.4 nM for the first, 2 ± 0.3 nM for the second.

First: B9
Second: B10
The Kd of the first is 3.9-fold lower: 25.7 ± 6.2 nM for the first, 99.8 ± 24.6 nM for the second.

B11 and B12 are within error of each other in Kd: 29.5 ± 7.6 nM for the first, 31.7 ± 5 nM for the second.

Compared with B13, B14 is 4.9-fold higher in Kd: 20.2 ± 2.2 nM for the first, 99.2 ± 25.3 nM for the second. The first binds more tightly here.

B15 and B16 are the same in Kd: 103 ± 17 nM for the first, 103 ± 11.9 nM for the second.

target: T1, ADAR1-Zα; experiment: SPR; remark: another data set of the same source

In the case of B7, the Kd is reported as 1.8 nM.

target: T2, ZBP1-Zα; experiment: SPR

For B7, the Kd was 255 nM.
